24 molecules from patent US8969060B2, “Modified glucose dehydrogenase” (Ikeda Food Research Co., Ltd., priority 2011, dated 2015) can be followed below.

The chains are these.
B1: G352F: modified GLD: SEQ ID NO: 1 with substitution G352F (protein, listed as Aspergillus terreus)
chain: MLGKLSFLSALSLAVAAPLSNSTSAKYDYIVIGGGTSGLAVANRLSEDPNVNVLILEAGGSVWNNPNVTNVDGYGLAFGSDIDWQYQSVNQPYGGNLSQVLRAGKALGGTSTINGMAYTRAEDVQIDAWETIGNTGWTWKNLFPYYRKSENFTVPTKSQTSLGASYEAGAHGHEGPLDVAFTQIESNNLTTYLNRTFQGMGLPWTEDVNGGKMRGFNLYPSTVNLEEYVREDAARAYYWPYKSRPNLHVLLNTFANRIVWDGEAHDGHITASGVEITSRNGTVRVINAEKEVIVSAGALKSPAILELSGIGNPSVLDKHNIPVKVNLPTVGENLQDQVNSHMDASGNTSISFTKAVSYPDVYDVFGDEAESVAKQIRANLKQYAADTAKANGNIMKAADLERLFEVQYDLIFKGRVPIAEVLNYPGSATSVFAEFWALLPFARGSVHIGSSNPAEFPVINPNYFMLDWDAKSYVAVAKYIRRSFESYPLSSIVKESTPGYDVIPRNASEQSWKEWVFDKNYRSNFHPVGTAAMMPREIGGVVDERLNVYGTTNVRVVDASVLPFQVCGHLVSTLYAVAERAADLIKADAGRR
modifications: SIGNAL (1)..(19)
B2: K354M: modified GLD: SEQ ID NO: 1 with substitution K354M (protein, listed as Aspergillus terreus)
chain: B1 chain with F352G, K354M
modifications: SIGNAL (1)..(19)
B3: G352N: modified GLD: SEQ ID NO: 1 with substitution G352N (protein, listed as Aspergillus terreus)
chain: B1 chain with F352N
modifications: SIGNAL (1)..(19)
B4: G352L: modified GLD: SEQ ID NO: 1 with substitution G352L (protein, listed as Aspergillus terreus)
chain: B1 chain with F352L
modifications: SIGNAL (1)..(19)
B5: K354N: modified GLD: SEQ ID NO: 1 with substitution K354N (protein, listed as Aspergillus terreus)
chain: B1 chain with F352G, K354N
modifications: SIGNAL (1)..(19)
B6: G352W: modified GLD: SEQ ID NO: 1 with substitution G352W (protein, listed as Aspergillus terreus)
chain: B1 chain with F352W
modifications: SIGNAL (1)..(19)
B7: G352T: modified GLD: SEQ ID NO: 1 with substitution G352T (protein, listed as Aspergillus terreus)
chain: B1 chain with F352T
modifications: SIGNAL (1)..(19)
B8: G352Q: modified GLD: SEQ ID NO: 1 with substitution G352Q (protein, listed as Aspergillus terreus)
chain: B1 chain with F352Q
modifications: SIGNAL (1)..(19)
B9: K354C: modified GLD: SEQ ID NO: 1 with substitution K354C (protein, listed as Aspergillus terreus)
chain: B1 chain with F352G, K354C
modifications: SIGNAL (1)..(19)
B10: G352V: modified GLD: SEQ ID NO: 1 with substitution G352V (protein, listed as Aspergillus terreus)
chain: B1 chain with F352V
modifications: SIGNAL (1)..(19)
B11: K354E: modified GLD: SEQ ID NO: 1 with substitution K354E (protein, listed as Aspergillus terreus)
chain: B1 chain with F352G, K354E
modifications: SIGNAL (1)..(19)
B12: G352S: modified GLD: SEQ ID NO: 1 with substitution G352S (protein, listed as Aspergillus terreus)
chain: B1 chain with F352S
modifications: SIGNAL (1)..(19)
B13: G352M: modified GLD: SEQ ID NO: 1 with substitution G352M (protein, listed as Aspergillus terreus)
chain: B1 chain with F352M
modifications: SIGNAL (1)..(19)
B14: G352K: modified GLD: SEQ ID NO: 1 with substitution G352K (protein, listed as Aspergillus terreus)
chain: B1 chain with F352K
modifications: SIGNAL (1)..(19)
B15: K354D: modified GLD: SEQ ID NO: 1 with substitution K354D (protein, listed as Aspergillus terreus)
chain: B1 chain with F352G, K354D
modifications: SIGNAL (1)..(19)
B16: K354F: modified GLD: SEQ ID NO: 1 with substitution K354F (protein, listed as Aspergillus terreus)
chain: B1 chain with F352G, K354F
modifications: SIGNAL (1)..(19)
B17: K354G: modified GLD: SEQ ID NO: 1 with substitution K354G (protein, listed as Aspergillus terreus)
chain: B1 chain with F352G, K354G
modifications: SIGNAL (1)..(19)
B18: K354P: modified GLD: SEQ ID NO: 1 with substitution K354P (protein, listed as Aspergillus terreus)
chain: B1 chain with F352G, K354P
modifications: SIGNAL (1)..(19)
B19: K354H: modified GLD: SEQ ID NO: 1 with substitution K354H (protein, listed as Aspergillus terreus)
chain: B1 chain with F352G, K354H
modifications: SIGNAL (1)..(19)
B20: G352Y: modified GLD: SEQ ID NO: 1 with substitution G352Y (protein, listed as Aspergillus terreus)
chain: B1 chain with F352Y
modifications: SIGNAL (1)..(19)
B21: G352R: modified GLD: SEQ ID NO: 1 with substitution G352R (protein, listed as Aspergillus terreus)
chain: B1 chain with F352R
modifications: SIGNAL (1)..(19)
B22: G352I: modified GLD: SEQ ID NO: 1 with substitution G352I (protein, listed as Aspergillus terreus)
chain: B1 chain with F352I
modifications: SIGNAL (1)..(19)
B23: K354A: modified GLD: SEQ ID NO: 1 with substitution K354A (protein, listed as Aspergillus terreus)
chain: B1 chain with F352G, K354A
modifications: SIGNAL (1)..(19)
B24: G352P: modified GLD: SEQ ID NO: 1 with substitution G352P (protein, listed as Aspergillus terreus)
chain: B1 chain with F352P
modifications: SIGNAL (1)..(19)

Changes are numbered by the printed parent chain. Numbers in names are those of the source. Where “and” joins values, the source holds several entries; their conditions need not be identical. Identical values can stand only once.

The first series is described as follows: Relative enzymatic activity of GLD (DCIP/1-m-PMS, plate reader, yeast culture supernatant) with 1,10-phenanthroline present. Format: biochemical. The settings on record: site-specific mutants, inhibitor final concentration 1 mM. Put shortly:
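Yeast transformants grown in YPD, 30° C., 24 h; diluted culture supernatant assayed in phosphate buffer pH 7.0 with D-glucose, DCIP and 1-m-PMS, DCIP absorbance change at 600 nm. Relative activity (%) = activity with 1 mM 1,10-phenanthroline (final, replacing methanol) divided by activity without it.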
B1: the “Relative Activity [%] 1,10-Phenanthroline” value is listed as 83.8%.

For the molecule B2, the “Relative Activity [%] 1,10-Phenanthroline” value turned out to be 53.5%.

Turning to B3, the “Relative Activity [%] 1,10-Phenanthroline” value is given as 80.5%.

Consider B4, for which the “Relative Activity [%] 1,10-Phenanthroline” value is 80.7%.

For the molecule B5, the “Relative Activity [%] 1,10-Phenanthroline” value is on record as 61.9%.

As to B6, the “Relative Activity [%] 1,10-Phenanthroline” value came to 81.2%.

As to B7, the “Relative Activity [%] 1,10-Phenanthroline” value came to 85.4%.

As for B8, the “Relative Activity [%] 1,10-Phenanthroline” value is on record as 90.4%.

With B9, the “Relative Activity [%] 1,10-Phenanthroline” value was 62.6%.

In the case of B10, the “Relative Activity [%] 1,10-Phenanthroline” value stood at 87.0%.

Take B11: the “Relative Activity [%] 1,10-Phenanthroline” value is given as 60.0%.

Regarding B12, the “Relative Activity [%] 1,10-Phenanthroline” value is 62.9%.

Take B13: the “Relative Activity [%] 1,10-Phenanthroline” value was 74.7%.

For B14, the “Relative Activity [%] 1,10-Phenanthroline” value is recorded as 82.5%.

B15: the “Relative Activity [%] 1,10-Phenanthroline” value was 70.8%.

As to B16, the “Relative Activity [%] 1,10-Phenanthroline” value is on record as 47.8%.

For B17, the “Relative Activity [%] 1,10-Phenanthroline” value is recorded as 60.8%.

Take B18: the “Relative Activity [%] 1,10-Phenanthroline” value was found to be 64.3%.

As for B19, the “Relative Activity [%] 1,10-Phenanthroline” value is 52.6% and 51.0%.

Take B20: the “Relative Activity [%] 1,10-Phenanthroline” value is given as 92.4%.

As for B21, the “Relative Activity [%] 1,10-Phenanthroline” value is 80.3%.

B22: the “Relative Activity [%] 1,10-Phenanthroline” value is reported as 85.5%.

On to B23, for which the “Relative Activity [%] 1,10-Phenanthroline” value came out at 66.2%.

Turning to B24, the “Relative Activity [%] 1,10-Phenanthroline” value came out at 89.8%.

A short description of the next series: Relative enzymatic activity of GLD (DCIP/1-m-PMS, plate reader, yeast culture supernatant) with proflavin hydrochloride present. Type of series: biochemical. As to conditions: site-specific mutants, inhibitor final concentration 1 mM. Put shortly: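 Culture supernatant diluted and mixed with reagent of phosphate buffer pH 7.0, 1.0 M D-glucose, 3 mM DCIP, 3 mM 1-m-PMS and methanol (0.1:1:0.14:0.2:0.06). DCIP absorbance decrease at 600 nm followed; proflavin hydrochloride in methanol replaced methanol at 1 mM final. Activity expressed as % of inhibitor-free blank.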
As to B1, the “Relative Activity [%] Proflavin hydrochloride” value is 56.9%.

As for B2, the “Relative Activity [%] Proflavin hydrochloride” value is 10.7%.

Turning to B3, the “Relative Activity [%] Proflavin hydrochloride” value is given as 55.8%.

B4: the “Relative Activity [%] Proflavin hydrochloride” value is 43.7%.

B5: the “Relative Activity [%] Proflavin hydrochloride” value is given as 15.1%.

Turning to B6, the “Relative Activity [%] Proflavin hydrochloride” value turned out to be 48.1%.

For B7, the “Relative Activity [%] Proflavin hydrochloride” value is 44.1%.

With B8, the “Relative Activity [%] Proflavin hydrochloride” value came to 56.4%.

For B9, the “Relative Activity [%] Proflavin hydrochloride” value stood at 14.4%.

Turning to B10, the “Relative Activity [%] Proflavin hydrochloride” value was found to be 41.6%.

Regarding B11, the “Relative Activity [%] Proflavin hydrochloride” value is recorded as 20.7%.

Regarding B12, the “Relative Activity [%] Proflavin hydrochloride” value is 38.7%.

Regarding B13, the “Relative Activity [%] Proflavin hydrochloride” value worked out at 45.7%.

Consider B14, for which the “Relative Activity [%] Proflavin hydrochloride” value is 32.7%.

With B15, the “Relative Activity [%] Proflavin hydrochloride” value amounted to 11.6%.

On to B16, for which the “Relative Activity [%] Proflavin hydrochloride” value was 16.0%.

In the case of B17, the “Relative Activity [%] Proflavin hydrochloride” value amounted to 23.0%.

Regarding B18, the “Relative Activity [%] Proflavin hydrochloride” value was 16.7%.

With B19, the “Relative Activity [%] Proflavin hydrochloride” value was 11.1% and 11.6%.

As for B20, the “Relative Activity [%] Proflavin hydrochloride” value was 52.8%.

With B21, the “Relative Activity [%] Proflavin hydrochloride” value is reported as 68.1%.

In the case of B22, the “Relative Activity [%] Proflavin hydrochloride” value came to 60.9%.

B23: the “Relative Activity [%] Proflavin hydrochloride” value is 8.9%.

As for B24, the “Relative Activity [%] Proflavin hydrochloride” value was 49.1%.
